In the data set the target is RUNX1 Runt domain (His6-RUNX1);CBFbeta (His6-CBFβ) (mouse;mouse, UniProt Q03347;Q08024 24-189;1-187, |). In words: EMSA. A general note: Mobility shift assays separate free from complexed probe on a gel.
Sequence of RUNX1 Runt domain (His6-RUNX1);CBFbeta (His6-CBFβ) (Q03347 24-189, chain 1 of 2): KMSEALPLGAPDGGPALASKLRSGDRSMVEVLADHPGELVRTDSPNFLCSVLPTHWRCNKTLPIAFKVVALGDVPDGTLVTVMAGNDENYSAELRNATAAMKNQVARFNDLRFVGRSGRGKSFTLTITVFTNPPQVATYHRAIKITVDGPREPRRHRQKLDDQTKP
Sequence of RUNX1 Runt domain (His6-RUNX1);CBFbeta (His6-CBFβ) (Q08024 whole entry, chain 2 of 2, the tested form may be a part): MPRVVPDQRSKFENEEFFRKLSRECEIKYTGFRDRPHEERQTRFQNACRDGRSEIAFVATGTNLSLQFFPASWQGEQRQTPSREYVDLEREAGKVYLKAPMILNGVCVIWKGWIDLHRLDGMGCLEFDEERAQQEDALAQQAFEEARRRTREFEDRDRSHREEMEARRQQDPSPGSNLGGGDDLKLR

B1: MT1 (dsDNA)
DNA 1: GAAAAATAACGTATGG
DNA 2: CCATACGTTATTTTTC
On to B1, for which the binding result is “no binding”.

B2: MT2 (dsDNA)
DNA 1: AGCTCCGTTATAGAAT
DNA 2: ATTCTATAACGGAGCT
For B2, the binding result is recorded as “no binding”.

B3: WT2 (dsDNA)
DNA 1: AGCTCTGTGGTAGAAT
DNA 2: ATTCTACCACAGAGCT
On to B3, for which the binding result is reported as “no binding”.

Values taken from paper PMC8727134.
